Patent publication US20240336649, “SYNTHESIS OF COVALENT PROTEIN DIMERS THAT CAN INHIBIT MYC-DRIVEN TRANSCRIPTION” (MASSACHUSETTS INSTITUTE OF TECHNOLOGY, published 2024)

What was measured:
[1] = target: Max-Max 14 (S-aryl linked covalent dimer) (UniProt P61244;P61244 SEQ:1-80,SEQ:1-80); experiment: BLI; details: protein: synthetic; tags: chemically synthesized; C-terminal cysteines crosslinked by dithiobenzene; chain copies: 2 stated
[2] = target: Omomyc-Max 17 (S-aryl linked covalent dimer) (UniProt P01106;P61244 SEQ:1-90,SEQ:1-80); experiment: EMSA; details: protein: synthetic; tags: chemically synthesized; C-terminal cysteines crosslinked by dithiobenzene
[3] = target: Myc-Max 16 (S-aryl linked covalent dimer) (UniProt P01106;P61244 SEQ:1-82,SEQ:1-80); experiment: EMSA; details: protein: synthetic; tags: chemically synthesized; C-terminal cysteines crosslinked by dithiobenzene
[4] = target: Myc-Myc 13 (S-aryl linked covalent dimer) (UniProt P01106;P01106 SEQ:1-82,SEQ:1-82); experiment: EMSA; negative control; details: protein: synthetic; tags: chemically synthesized; C-terminal cysteines crosslinked by dithiobenzene; chain copies: 2 stated
[5] = target: Omomyc analog 12 (C-terminal Cys), non-covalent homodimer (UniProt P01106 SEQ:1-90); experiment: EMSA; Omomyc+Omomyc; details: protein: synthetic; tags: chemically synthesized; C-terminal cysteine added; chain copies: 2 stated
Excerpt: (§1) The three synthetic analogs 10, 11, and 12 can form non-covalent dimers and bind to the target E-box DNA (5′-[…]-3′). […] However, it is not possible to determine which dimeric species form in a solution containing two different monomers. For instance, upon mixing Max (11) and Omomyc (12), three different dimers (Max/Max, Omomyc/Omomyc and Max/Omomyc) can form and potentially bind to DNA (FIG. 18). To assess the activity of these protein complexes in a reliable manner, access to well-defined covalent protein dimers is critical.

[6] = target: Max analog 11 (C-terminal Cys), non-covalent homodimer (UniProt P61244 SEQ:1-80); experiment: EMSA; Max+Max; details: protein: synthetic; tags: chemically synthesized; C-terminal cysteine added; chain copies: 2 stated
Excerpt: as §1

[7] = target: MYC monomer (bHLHZ, Example 2) (UniProt P01106 SEQ:1-82); experiment: EMSA; negative control, 4 uM protein, 1 uM DNA; details: protein: synthetic; tags: chemically synthesized by automated flow peptide synthesis
Protocol: (§2) Biophysical characterization confirmed the folding and DNA-binding activity of the four covalent protein dimers 3, 4, 5, and 6. The dimers were first analyzed by sodium dodecyl sulfate polyacrylamide gel electrophoresis (SDS-PAGE). […] Next an electrophoretic mobility shift assay (EMSA) was performed to determine the dimers' DNA binding activity. At a DNA concentration of 1 μM and protein concentration of 2 μM, all dimers formed complexes with the E-Box DNA, as observed by the shift retardation on the gel.
(§3) The E-Box DNA probe (2 μM in binding buffer) was heated to 95° C. for 5 minutes and then let cool down to room temperature over 15 minutes for double-strand annealing. Protein dimer (4 μM in binding buffer: MES 10 mM, KCl 150 mM, MgCl₂ 1 mM, TCEP 1 mM, glycerol 10%, pH=6.5) was added to the DNA (final concentrations: 2 μM protein and 1 μM DNA) and the mixture was incubated for 1 h at room temperature. During the incubation, a 10% polyacrylamide gel was prerun (1 h, 4° C., 100 V) in 1× TBE buffer. After that time, DNA protein mixture (20 μL) was mixed with 6× DNA Loading Dye (4 μL)) and loaded on the gel, which was run at 75 V, for 90 min at 4° C. The gel was washed with water for 20 seconds and then stained with 0.02% ethidium bromide in 1xTBE buffer for 15 min at room temperature. Bands were visualized on a Biorad Gel imager.

[8] = target: Omomyc-Omomyc covalent homodimer 4 (lysine-linked) (UniProt P01106;P01106 SEQ:1-90,SEQ:1-90); experiment: EMSA; 2 uM protein, 1 uM DNA; MES 10 mM, KCl 150 mM, MgCl2 1 mM, pH 6.5, RT; details: protein: synthetic; tags: chemically synthesized; C-termini linked via Lys-betaAla-Lys linker; chain copies: 2 stated
Protocol: as §2, §3

[9] = target: Omomyc-MAX covalent heterodimer 6 (lysine-linked) (UniProt P01106;P61244 SEQ:1-90,SEQ:1-80); experiment: as above; details: protein: synthetic; tags: chemically synthesized; C-termini linked via Lys-betaAla-Lys linker; Boc-Gly coupled as last residue of MAX during synthesis
Protocol: as §2, §3

[10] = target: MYC-MAX covalent heterodimer 5 (lysine-linked) (UniProt P01106;P61244 SEQ:1-82,SEQ:1-80); experiment: as above; details: protein: synthetic; tags: chemically synthesized; C-termini linked via Lys-betaAla-Lys linker; Boc-Gly coupled as last residue of MAX during synthesis
Protocol: as §2, §3

[11] = target: Myc analog 10 (C-terminal Cys) (UniProt P01106 SEQ:1-82); experiment: EMSA; Myc alone cannot homodimerize; details: protein: synthetic; tags: chemically synthesized; C-terminal cysteine added
Excerpt: as §1

B1: E-box DNA probe (22 bp) (dsDNA)
DNA 1: CCGGCTGACACGTGGTATTAAT
DNA 2: ATTAATACCACGTGTCAGCCGG
Kd [1]: 50 nM
binding result [2]: binds
binding result [3]: binds
binding result [4]: no binding
binding result [5]: binds
binding result [6]: binds
binding result [7]: no binding
binding result [8]: binds
binding result [9]: binds
binding result [10]: binds
binding result [11]: no binding
